Source: IntAct's records for PubMed 18034774

B1: Ras-related protein Rab-5A (Homo sapiens), P20339 (parent)
chain: MASRGATRPNGPNTGNKICQFKLVLLGESAVGKSSLVLRFVKGQFHEFQESTIGAAFLTQTVCLDDTTVKFEIWDTAGQERYHSLAPMYYRGAQAAIVVYDITNEESFARAKNWVKELQRQASPNIVIALSGNKADLANKRAVDFQEAQSYADDNSLLFMETSAKTSMNVNEIFMAIAKKLPKNEPQNPGANSARGRGVDLTEPTQPTRNQCCSN
partner: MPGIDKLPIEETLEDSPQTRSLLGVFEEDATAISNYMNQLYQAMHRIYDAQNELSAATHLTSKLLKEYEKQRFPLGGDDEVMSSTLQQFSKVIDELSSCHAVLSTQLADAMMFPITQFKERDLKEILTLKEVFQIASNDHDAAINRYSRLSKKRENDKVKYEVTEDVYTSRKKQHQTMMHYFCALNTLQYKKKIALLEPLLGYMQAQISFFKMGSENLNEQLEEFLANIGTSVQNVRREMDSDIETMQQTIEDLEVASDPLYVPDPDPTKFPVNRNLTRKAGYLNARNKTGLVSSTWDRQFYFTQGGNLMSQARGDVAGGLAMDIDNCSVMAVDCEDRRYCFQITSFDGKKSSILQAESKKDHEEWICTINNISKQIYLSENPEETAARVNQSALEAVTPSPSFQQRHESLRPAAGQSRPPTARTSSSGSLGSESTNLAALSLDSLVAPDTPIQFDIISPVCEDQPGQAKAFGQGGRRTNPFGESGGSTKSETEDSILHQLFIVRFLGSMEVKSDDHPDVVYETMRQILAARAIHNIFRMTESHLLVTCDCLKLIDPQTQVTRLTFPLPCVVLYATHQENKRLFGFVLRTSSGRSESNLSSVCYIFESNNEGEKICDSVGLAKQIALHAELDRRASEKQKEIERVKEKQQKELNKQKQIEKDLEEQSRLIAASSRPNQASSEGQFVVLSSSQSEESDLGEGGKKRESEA

Variants of: B1
Conditions: with dp13a_human APPL1, Q9UKG1

effect of a mutation on the interaction	Variant
disrupting interaction strength	MASRGATRPNGPNTGNKICQFKLVLLGESAVGKNSLVLRFVKGQFHEFQESTIGAAFLTQTVCLDDTTVKFEIWDTAGQERYHSLAPMYYRGAQAAIVVYDITNEESFARAKNWVKELQRQASPNIVIALSGNKADLANKRAVDFQEAQSYADDNSLLFMETSAKTSMNVNEIFMAIAKKLPKNEPQNPGANSARGRGVDLTEPTQPTRNQCCSN [S34N]
